According to patent US20250032576A1, “CNP Therapy” (BIOMARIN PHARMACEUTICAL INC., priority 2021, published 2025):
“And” between values parts separate entries of the source, which are not always exact repeats. Equal entries are not always repeated. Each block holds one compound with its values, some of them ahead of it. No end group written: not given here.

How the values were obtained:
[1] = test system: mice deficient in Nf1 in type II collagen producing cells; settings: daily injections; cited from earlier work
[2] = test system: mouse model of Cardiofaciocutaneous syndrome using a Braf mutation (p.Q241R); settings: in vivo; cited from earlier work
[3] = molecular target: NPR2 variant Ala48Ser (human) (UniProt P20594); test: cell-based or functional assay
[4] = molecular target: NPR2 variant Ala59Thr (human) (UniProt P20594); test: cell-based or functional assay
[5] = molecular target: NPR2 variant Arg263His (human) (UniProt P20594); test: cell-based or functional assay
[6] = molecular target: NPR2 variant Arg562Gln (human) (UniProt P20594); test: cell-based or functional assay
[7] = molecular target: NPR2 variant Arg601Ser (human) (UniProt P20594); test: cell-based or functional assay
[8] = molecular target: NPR2 variant Arg776Trp (human) (UniProt P20594); test: cell-based or functional assay
[9] = molecular target: NPR2 variant Arg957Cys (human) (UniProt P20594); test: cell-based or functional assay
[10] = molecular target: NPR2 variant Glu359Ala (human) (UniProt P20594); test: cell-based or functional assay
[11] = molecular target: NPR2 variant Glu389Asp (human) (UniProt P20594); test: cell-based or functional assay
[12] = molecular target: NPR2 variant Glu727Gln (human) (UniProt P20594); test: cell-based or functional assay
[13] = molecular target: NPR2 variant Glu77Lys (human) (UniProt P20594); test: cell-based or functional assay
[14] = molecular target: NPR2 variant Gly209Val (human) (UniProt P20594); test: cell-based or functional assay
[15] = molecular target: NPR2 variant Gly21Arg (human) (UniProt P20594); test: cell-based or functional assay
[16] = molecular target: NPR2 variant Gly917Arg (human) (UniProt P20594); test: cell-based or functional assay
[17] = molecular target: NPR2 variant HIS508Asp (human) (UniProt P20594); test: cell-based or functional assay
[18] = molecular target: NPR2 variant His552Arg (human) (UniProt P20594); test: cell-based or functional assay
[19] = molecular target: NPR2 variant Ile494Ser (human) (UniProt P20594); test: cell-based or functional assay
[20] = molecular target: NPR2 variant Leu1009Val (human) (UniProt P20594); test: cell-based or functional assay
[21] = molecular target: NPR2 variant Leu956Gln (human) (UniProt P20594); test: cell-based or functional assay
[22] = molecular target: NPR2 variant Lys1006Thr (human) (UniProt P20594); test: cell-based or functional assay
[23] = molecular target: NPR2 variant Lys367Glu (human) (UniProt P20594); test: cell-based or functional assay
[24] = molecular target: NPR2 variant Lys480Asn (human) (UniProt P20594); test: cell-based or functional assay
[25] = molecular target: NPR2 variant Lys629Arg (human) (UniProt P20594); test: cell-based or functional assay
[26] = molecular target: NPR2 variant Pro301Ser (human) (UniProt P20594); test: cell-based or functional assay
[27] = molecular target: NPR2 variant Ser522Pro (human) (UniProt P20594); test: cell-based or functional assay
[28] = molecular target: NPR2 variant Thr297Met (human) (UniProt P20594); test: cell-based or functional assay
[29] = molecular target: NPR2 variant Thr377Asn (human) (UniProt P20594); test: cell-based or functional assay
[30] = molecular target: NPR2 variant Thr907Met (human) (UniProt P20594); test: cell-based or functional assay
[31] = molecular target: NPR2 variant Trp42Arg (human) (UniProt P20594); test: cell-based or functional assay
[32] = molecular target: NPR2 variant Val553Leu (human) (UniProt P20594); test: cell-based or functional assay
[33] = molecular target: NPR2 variant Val965Asp (human) (UniProt P20594); test: cell-based or functional assay
[34] = test system: children aged 3 to 60 months; set-up: species or system human; settings: in vivo, sc
Excerpt: See also PCT Application No. PCT/US22/73605.

[35] = clinical; settings: human, in vivo
Excerpt: Studies from rodent pups, growing lambs and children support the view that circulating levels of CNP products in plasma (CNP and NTproCNP) are sourced largely from growth plate or closely related tissues (Espiner 2018, supra). Measurement of any possible impact on endogenous proCNP production of administered CNP 1-37 Pro Gly (which strongly cross-reacts with CNP but not NTproCNP assay) is therefore only feasible using plasma concentrations of NTproCNP adjusted for age and sex (SDS). […] It is instructive to compare these dynamic changes in CNP with those found in short non Ach children of similar age starting daily doses of Human Growth Hormone (HGH) (Olney, et al. Clin Endocrinol (Oxf) 85:561-568, 2016). In that setting, similar inflections in AGV were associated with increase in NTproCNP (mean 11 pmol/L, delta 22% at day 21) in contrast to the concurrent fall of NTproCNP (approximately 6 pmol/L, range 3-11 pmol/L, delta-12%) at Day 29 during 15-30 μg/kg/d Vosoritide treatment in Cohorts 3 and 4. […] These kinetic responses could relate to the estimated times (approximately 20-22 days) (Sansone et al., J Pediatr Orthop 29:61-67, 2009) for recruited chondrocytes to traverse the respective zones of the expanding growth plate and populate the primary spongiosa.
This temporal constraint may relate to the early growth spurt observed in many of the children studied. […]

[36] = human, in vivo
Protocol: (§1) In an ongoing Phase II study of CNP therapy in children, a group of patients age 3 to 6 months (cohort 3) were administered CNP (BMN111) at a dose of 30 μg/kg daily subcutaneously, and changes in annualized growth volume, changes in height, and skull morphology were measured.

[37] = clinical; settings: human, in vivo; for Tmax: Median [range] Tmax; for Cmax: Mean (SD) Cmax
Protocol: as §1

Compound: C-type natriuretic peptide (GLSKGCFGLKLDRIGSMSGLGC; ends and bridges not checked; cysteine pairing not given here; UniProt P23582 105-126, looked up) [CNP, small, single chain peptide having a 17-amino acid loop structure at the C-terminal end]
ERK phosphorylation [1]: decreased ERK phosphorylation
short stature [1]: corrected the short stature
body length [2]: increases in body length

average phenotype (cGMP, normalized to RedLuciferase, WT set to 1) (relative to WT = 1) [3]: 0.0679
average phenotype (cGMP, normalized to RedLuciferase, WT set to 1) (relative to WT = 1) [4]: 3.74
average phenotype (cGMP, normalized to RedLuciferase, WT set to 1) (relative to WT = 1) [5]: 1.86
average phenotype (cGMP, normalized to RedLuciferase, WT set to 1) (relative to WT = 1) [6]: 1.55 and 1.63
average phenotype (cGMP, normalized to RedLuciferase, WT set to 1) (relative to WT = 1) [7]: 0.0595
average phenotype (cGMP, normalized to RedLuciferase, WT set to 1) (relative to WT = 1) [8]: 0.0131
average phenotype (cGMP, normalized to RedLuciferase, WT set to 1) (relative to WT = 1) [9]: 0.0295 and 0.0155
average phenotype (cGMP, normalized to RedLuciferase, WT set to 1) (relative to WT = 1) [10]: 3
average phenotype (cGMP, normalized to RedLuciferase, WT set to 1) (relative to WT = 1) [11]: 0.0708
average phenotype (cGMP, normalized to RedLuciferase, WT set to 1) (relative to WT = 1) [12]: 1.7
average phenotype (cGMP, normalized to RedLuciferase, WT set to 1) (relative to WT = 1) [13]: 0.0499
average phenotype (cGMP, normalized to RedLuciferase, WT set to 1) (relative to WT = 1) [14]: 0.0886
average phenotype (cGMP, normalized to RedLuciferase, WT set to 1) (relative to WT = 1) [15]: 2.78
average phenotype (cGMP, normalized to RedLuciferase, WT set to 1) (relative to WT = 1) [16]: 0.0171
average phenotype (cGMP, normalized to RedLuciferase, WT set to 1) (relative to WT = 1) [17]: 1.74
average phenotype (cGMP, normalized to RedLuciferase, WT set to 1) (relative to WT = 1) [18]: 1.79
average phenotype (cGMP, normalized to RedLuciferase, WT set to 1) (relative to WT = 1) [19]: 0.0364
average phenotype (cGMP, normalized to RedLuciferase, WT set to 1) (relative to WT = 1) [20]: 0.0847
average phenotype (cGMP, normalized to RedLuciferase, WT set to 1) (relative to WT = 1) [21]: 0.0243
average phenotype (cGMP, normalized to RedLuciferase, WT set to 1) (relative to WT = 1) [22]: 0.0551
average phenotype (cGMP, normalized to RedLuciferase, WT set to 1) (relative to WT = 1) [23]: 0.0144
average phenotype (cGMP, normalized to RedLuciferase, WT set to 1) (relative to WT = 1) [24]: 1.69
average phenotype (cGMP, normalized to RedLuciferase, WT set to 1) (relative to WT = 1) [25]: 1.49
average phenotype (cGMP, normalized to RedLuciferase, WT set to 1) (relative to WT = 1) [26]: 0.0848
average phenotype (cGMP, normalized to RedLuciferase, WT set to 1) (relative to WT = 1) [27]: 0.0567
average phenotype (cGMP, normalized to RedLuciferase, WT set to 1) (relative to WT = 1) [28]: 0.0302
average phenotype (cGMP, normalized to RedLuciferase, WT set to 1) (relative to WT = 1) [29]: 0.0106
average phenotype (cGMP, normalized to RedLuciferase, WT set to 1) (relative to WT = 1) [30]: 0.0146
average phenotype (cGMP, normalized to RedLuciferase, WT set to 1) (relative to WT = 1) [31]: 0.0288
average phenotype (cGMP, normalized to RedLuciferase, WT set to 1) (relative to WT = 1) [32]: 1.52
average phenotype (cGMP, normalized to RedLuciferase, WT set to 1) (relative to WT = 1) [33]: 0.0158
Compound: C-type natriuretic peptide (CNP) (from UniProt P23582 105-126) (ligand)

half-life [35]: 28 min
Median [range] Tmax ([36]; 15 ug/kg): 15.0 [7.0, 31.0] min
Mean (SD) Cmax ([36]; 30 ug/kg): 13,500 (6770) pg/mL
Mean (SD) AUC0-t ([36]; sc, 30 ug/kg): 323,000 (129,000) pg-min/mL
Tmax ([37]; 15 ug/kg): 15 min
Cmax ([37]; 30 ug/kg): 10.1 ng/mL
Tmax ([37]; 30 ug/kg): 14 min
Cmax ([37]; sc, 15 ug/kg): 4.43 ng/mL
half-life ([37]; sc, 15 ug/kg, Mean (SD) t1/2): 21.7 min
Tmax ([37]; sc, 15 ug/kg): 15 min
AUC(0-t) ([37]; sc, 30 ug/kg, Mean (SD) AUC0-t): 9.12 ng·h/mL
Cmax ([37]; sc, 30 ug/kg): 14.5 ng/mL
Compound: CC[C@H](C)[C@@H]1NC(=O)[C@H](CCCNC(=N)N)NC(=O)[C@H](CC(=O)O)NC(=O)[C@H](CC(C)C)NC(=O)[C@H](CCCCN)NC(=O)[C@H](CC(C)C)NC(=O)CNC(=O)[C@H](Cc2ccccc2)NC(=O)[C@@H](NC(=O)CNC(=O)[C@H](CCCCN)NC(=O)[C@H](CO)NC(=O)[C@H](CC(C)C)NC(=O)CNC(=O)[C@H](CCCCN)NC(=O)[C@H](CCCCN)NC(=O)[C@H](CC(N)=O)NC(=O)[C@H](C)NC(=O)CNC(=O)[C@H](CCCCN)NC(=O)[C@H](Cc2ccc(O)cc2)NC(=O)[C@H](CCCCN)NC(=O)[C@H](CCCNC(=N)N)NC(=O)[C@H](C)NC(=O)[C@H](CC(N)=O)NC(=O)[C@@H]2CCCN2C(=O)[C@H](Cc2c[nH]cn2)NC(=O)[C@H](CCC(=O)O)NC(=O)[C@H](CCC(N)=O)NC(=O)CNC(=O)[C@@H]2CCCN2)CSSC[C@@H](C(=O)O)NC(=O)CNC(=O)[C@H](CC(C)C)NC(=O)CNC(=O)[C@H](CO)NC(=O)[C@H](CCSC)NC(=O)[C@H](CO)NC(=O)CNC1=O [Vosoritide]
overall adverse-event profile [34]: generally mild
